Measured values as given in patent publication US11535650 (RA PHARMACEUTICALS, dated 2022).
Starred links: 1 amine or outer side, 2 acyl side, 3 side chain; linkers in the order of their positions; H or OH if unused. Positions of bridges follow the written chain, without caps; N, C: chain ends. Non-standard residues stand in square brackets, D forms with d. Primed or numbered codes have the meaning given here. No end group written: not given here. mXylyl(3) = bridging moiety between the two residues given in brackets; Tyr(OMe) = O-methyl tyrosine, COc1ccc(C[C@H](N[*:1])C(=O)[*:2])cc1; mXylyl(5) = bridging moiety between the two residues (meta-xylyl); mXylyl = bridging moiety between residues (mXylyl(i,j)); Trp(5-F) = N[C@@H](Cc1c[nH]c2ccc(F)cc12)C(=O)O; Trp(7-aza) = N[C@@H](Cc1c[nH]c2ncccc12)C(=O)O; mXylyl(4) = bridging moiety between residues; NMePhe(4-F) = CN[C@@H](Cc1ccc(F)cc1)C(=O)O; PEG2000 = polyethylene glycol, 2000 Da; Phe(4-F) = N[C@@H](Cc1ccc(F)cc1)C(=O)O; Phg(2-OMe) = COc1ccccc1[C@H](N)C(=O)O; hPhe = N[C@@H](CCc1ccccc1)C(=O)O; dChg = N[C@@H](C(=O)O)C1CCCCC1; Chg = N[C@H](C(=O)O)C1CCCCC1; Phg = N[C@H](C(=O)O)c1ccccc1; Tle = CC(C)(C)[C@H](N)C(=O)O; NMeS = CN[C@@H](CO)C(=O)O; Nva = CCC[C@H](N)C(=O)O; Aib = CC(C)(N)C(=O)O; Sar = CNCC(=O)O

Legend:
[1] = target: T1, human C5 protein (human, UniProt P01031 19-673; P01031 678-1676); assay: cell-based or functional assay
[2] = target: T1, human C5 protein; assay: cell-based or functional assay; remark: listed apart in the source

Ac-[Nva]C[Phg]T[Trp(7-aza)]EY[NMeS]C[Nva]-NH2 (linker 2-9 via mXylyl(5)) [R3080]
Avg. IC50, human hemolysis assay (complete human sera) [1]: > 50000 nM

B1: R3006 (peptide)
peptide: Ac-YEN[Tle]Y[Trp(7-aza)]EY[Sar][Nva][NMeS]-NH2
SMILES: CCC[C@H](NC(=O)CN(C)C(=O)[C@H](Cc1ccc(O)cc1)NC(=O)[C@H](CCC(=O)O)NC(=O)[C@H](Cc1c[nH]c2ncccc12)NC(=O)[C@H](Cc1ccc(O)cc1)NC(=O)[C@@H](NC(=O)[C@H](CC(N)=O)NC(=O)[C@H](CCC(=O)O)NC(=O)[C@H](Cc1ccc(O)cc1)NC(C)=O)C(C)(C)C)C(=O)N(C)[C@@H](CO)C(N)=O
Avg. IC50, human hemolysis assay (complete human sera) [1]: 267 nM

Ac-[Nva]C[Phg]TWEY[NMeS]AC[Nva]-NH2 (linker 2-10 via mXylyl(4)) [R3091]
Avg. IC50, human hemolysis assay (complete human sera) [1]: 483 nM

Ac-[Chg]C[Phg]T[Trp(7-aza)]EY[NMeS]AC[Nva]-NH2 (linker 2-10 via mXylyl(4)) [R3089]
Avg. IC50, human hemolysis assay (complete human sera) [1]: > 15000 nM

Ac-CVERFCD[Tle]Y[Trp(7-aza)]EWP[Chg][Nva] (linker 1-6 via mXylyl(3)) [R3177]
Avg. IC50, hemolysis assay (C5 depleted sera + purified human C5) [2]: 12 nM

Ac-[Nva]C[Phg]T[Trp(7-aza)]DY[NMeS]AC[Nva]-NH2 (linker 2-10 via mXylyl(4)) [R3097]
Avg. IC50, human hemolysis assay (complete human sera) [1]: > 100000 nM

Ac-[Nva]C[Phg]TFEY[NMeS]AC[Nva]-NH2 (linker 2-10 via mXylyl(4)) [R3092]
Avg. IC50, human hemolysis assay (complete human sera) [1]: > 50000 nM

B2: R3077 (peptide)
peptide: Ac-[Nva][Nva]YEN[Tle]Y[Trp(7-aza)]EYP[Chg][Nva]K
modifications: not fully specified (residue 14, C-terminus); printed as Ac-Nvl-Nvl-Y-E-N-Tbg-Y-azaTrp-E-Y-P-Chg-Nvl-K-(PEG2000) NH2; also: PEG2000 at C-terminal Lys, attachment site unstated
Avg. IC50, human hemolysis assay (complete human sera) [1]: 81.7 nM

Ac-[Nva]CKE[Phg]YC[NMeS][Tle]K[Trp(7-aza)]EY-NH2 (linker 2-7 via mXylyl) [R3007]
Avg. IC50, human hemolysis assay (complete human sera) [1]: 314 nM

Ac-[Nva]C[Phg]T[Trp(7-aza)]EYSAC[Nva]-NH2 (linker 2-10 via mXylyl(5)) [R3084]
Avg. IC50, human hemolysis assay (complete human sera) [1]: > 100000 nM

Ac-[Nva]SYEC[Tle]Y[Trp(7-aza)]EYP[Chg]C[Nva]-NH2 (linker 5-13 via mXylyl(5)) [R3086]
Avg. IC50, human hemolysis assay (complete human sera) [1]: > 50000 nM

Ac-[Nva]C[Phg]T[Trp(5-F)]EY[NMeS]AC[Nva]-NH2 (linker 2-10 via mXylyl(5)) [R3088]
Avg. IC50, human hemolysis assay (complete human sera) [1]: > 100000 nM

Ac-[Nva]C[Phg]T[Trp(7-aza)]E[Tyr(OMe)][NMeS]HC[Nva]-NH2 (linker 2-10 via mXylyl(5)) [R3074]
Avg. IC50, human hemolysis assay (complete human sera) [1]: 308 nM

B3: R3072 (peptide)
peptide: Ac-[Nva][Nva]YEN[Tle]Y[Trp(7-aza)]EYP[Chg][Nva]K-NH2
SMILES: CCC[C@H](NC(C)=O)C(=O)N[C@@H](CCC)C(=O)N[C@@H](Cc1ccc(O)cc1)C(=O)N[C@@H](CCC(=O)O)C(=O)N[C@@H](CC(N)=O)C(=O)N[C@H](C(=O)N[C@@H](Cc1ccc(O)cc1)C(=O)N[C@@H](Cc1c[nH]c2ncccc12)C(=O)N[C@@H](CCC(=O)O)C(=O)N[C@@H](Cc1ccc(O)cc1)C(=O)N1CCC[C@H]1C(=O)N[C@H](C(=O)N[C@@H](CCC)C(=O)N[C@@H](CCCCN)C(N)=O)C1CCCCC1)C(C)(C)C
Avg. IC50, human hemolysis assay (complete human sera) [1]: 26.9 nM

Ac-[Nva]C[Phg]T[Trp(7-aza)]E[hPhe][NMeS]AC[Nva]-NH2 (linker 2-10 via mXylyl(4)) [R3095]
Avg. IC50, human hemolysis assay (complete human sera) [1]: > 50000 nM

Ac-[Nva]C[Phg]T[Trp(7-aza)]E[Phe(4-F)][NMeS]HC[Nva]-NH2 (linker 2-10 via mXylyl(5)) [R3073]
Avg. IC50, human hemolysis assay (complete human sera) [1]: 403 nM

Ac-[Nva]C[Phg]T[Trp(7-aza)]NY[NMeS]AC[Nva]-NH2 (linker 2-10 via mXylyl(4)) [R3099]
Avg. IC50, human hemolysis assay (complete human sera) [1]: > 100000 nM

Ac-[Nva]C[Phg(2-OMe)]T[Trp(7-aza)]EY[NMeS]HC[Nva]-NH2 (linker 2-10 via mXylyl(5)) [R3087]
Avg. IC50, human hemolysis assay (complete human sera) [1]: > 25000 nM

PEG2000-[Nva][Nva]YEN[Tle]Y[Trp(7-aza)]EYP[Phg][Nva]-NH2 [R3078]
Avg. IC50, human hemolysis assay (complete human sera) [1]: 568 nM

[Nva]CY[NMeS][Phg][NMePhe(4-F)][NMeS]H[NMePhe(4-F)]GC-NH2 (linker 2-11 via mXylyl(5)) [R3075]
Avg. IC50, human hemolysis assay (complete human sera) [1]: > 75000 nM

Ac-[Nva]C[dChg]T[Trp(7-aza)]EY[NMeS]AC[Nva]-NH2 (linker 2-10 via mXylyl(4)) [R3093]
Avg. IC50, human hemolysis assay (complete human sera) [1]: > 100000 nM

Ac-VC[Phg]T[Trp(7-aza)]EY[NMeS]AC[Nva]-NH2 (linker 2-10 via mXylyl(5)) [R3083]
Avg. IC50, human hemolysis assay (complete human sera) [1]: > 25000 nM

Ac-[Nva]CFT[Trp(7-aza)]EY[NMeS]AC[Nva]-NH2 (linker 2-10 via mXylyl(4)) [R3090]
Avg. IC50, human hemolysis assay (complete human sera) [1]: > 100000 nM

Ac-[Nva]C[Phg][Aib][Trp(7-aza)]EY[NMeS]HC[Nva]-NH2 (linker 2-10 via mXylyl(3)) [R3096]
Avg. IC50, human hemolysis assay (complete human sera) [1]: > 50000 nM

Ac-[Nva]C[Phg]T[Trp(7-aza)]QY[NMeS]AC[Nva]-NH2 (linker 2-10 via mXylyl(4)) [R3098]
Avg. IC50, human hemolysis assay (complete human sera) [1]: > 100000 nM

Ac-[Nva]C[Phg]T[Trp(7-aza)]EF[NMeS]AC[Nva]-NH2 (linker 2-10 via mXylyl(4)) [R3100]
Avg. IC50, human hemolysis assay (complete human sera) [1]: 626 nM
